# Patent publication US20090123479A1 (published 2009)
# T1: recombinant human IL-23 (human, UniProt Q9NPF7 20-189; P29460 23-328)
# T1 construct: also called hIL-23
# T1 sequence 1: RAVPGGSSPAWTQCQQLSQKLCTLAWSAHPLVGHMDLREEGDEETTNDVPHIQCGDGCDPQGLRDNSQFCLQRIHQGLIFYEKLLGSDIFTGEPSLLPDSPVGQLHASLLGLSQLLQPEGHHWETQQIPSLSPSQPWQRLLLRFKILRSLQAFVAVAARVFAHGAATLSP
# T1 sequence 2: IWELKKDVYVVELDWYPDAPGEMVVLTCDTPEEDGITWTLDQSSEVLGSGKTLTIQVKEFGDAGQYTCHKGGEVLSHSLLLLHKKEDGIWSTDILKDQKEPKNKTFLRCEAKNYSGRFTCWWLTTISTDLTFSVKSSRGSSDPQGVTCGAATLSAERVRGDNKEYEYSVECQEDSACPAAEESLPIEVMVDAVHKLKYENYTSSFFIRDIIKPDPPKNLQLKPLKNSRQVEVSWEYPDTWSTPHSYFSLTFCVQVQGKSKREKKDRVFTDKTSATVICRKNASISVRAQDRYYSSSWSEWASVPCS
# B1: A3M4 (antibody, human IgG1, kappa, V domains shown)
# VH: QVQLVQSGAEVKKPGSSVKVSCKASGYTFTSYGITWVRQAPGQGLEWMGENYPRSGNTYYNEKFKGRVTITADKSTSTAYMELSSLRSEDTAVYYCARSEFISTVVAPYYYALDYWGQGTLVTVSS
# VL: DIVMTQSPDSLAVSLGERATINCKASKKVTIFGSTSALHWYQQKPGQPPKLIYNGAKPESGVPDRFSGSGSGTDFTLTISSLQAEDVAVYYCLQNKEVPYTFGGGTKVEIKR
# notes: Full length chains
# B2: A12.5M3 (antibody, V domains shown)
# VH: QVQLVQSGAEVKKPGSSVKVSCKASGYTFASYGITWVRQAPGQGLEWMGENYPRSGNTYYNEKFKGRVTITADKSTSTAYMELSSLRSEDTAVYYCARVEFISTVVAPYYYALDYWGQGTLVTVSS
# VL: DIVMTQSPDSLAVSLGERATINCKASKKVTIFGSTSALHWYQQKPGQPPKLIYNGAKLESGVPDRFSGSGSGTDFTLTISSLQAEDVAVYYCLQNKEVPYTFGGGTKVEIK
# B3: A10M3 (antibody, human IgG1, kappa, V domains shown)
# VH: QVQLVQSGAEVKKPGSSVKVSCKASGYTFASYGITWVRQAPGQGLEWMGENYPRSGNTYYNEKFKGRVTITADKSTSTAYMELSSLRSEDTAMYYCARSEFISTVVAPYYYALDYWGQGTLVTVSS
# VL: DIVMTQSPDSLAVSLGERATINCKASKKVTIFGSTSALHWYQQKPGQPPKLIYNGAKLESGVPDRFSGSGSGTDFTLTISSLQAEDVAVYYCLQNKEVPYTFGGGTKVEIKR
# notes: Full length chains
# B4: A5M4 (antibody, human IgG1, kappa, V domains shown)
# VH: QVQLVQSGAEVKKPGSSVKVSCKASGYTFTSYGITWVRQAPGQGLEWMGENYPRSGNTYYNEKFKGRVTITADKSTSTAYMELSSLRSEDTAVYYCARAEFISTVVAPYYYALDYWGQGTLVTVSS
# VL: DIVMTQSPDSLAVSLGERATINCKASKKVTIFGSTSALHWYQQKPGQPPKLIYNGAKPESGVPDRFSGSGSGTDFTLTISSLQAEDVAVYYCLQNKEVPYTFGGGTKVEIKR
# notes: Full length chains
# B5: A11.5M3 (antibody, V domains shown)
# VH: QVQLVQSGAEVKKPGSSVKVSCKASGYTFASYGITWVRQAPGQGLEWMGENYPRSGNTYYNEKFKGRVTITADKSTSTAYMELSSLRSEDTAVYYCARAEFISTVVAPYYYALDYWGQGTLVTVSS
# VL: DIVMTQSPDSLAVSLGERATINCKASKKVTIFGSTSALHWYQQKPGQPPKLIYNGAKLESGVPDRFSGSGSGTDFTLTISSLQAEDVAVYYCLQNKEVPYTFGGGTKVEIK
# B6: A7M4 (antibody, human IgG1, kappa, V domains shown)
# VH: QVQLVQSGAEVKKPGSSVKVSCKASGYTFTSYGITWVRQAPGQGLEWMGEDYPRSGNTYYNEKFKGRVTITADKSTSTAYMELSSLRSEDTAVYYCARSEFISTVVAPYYYALDYWGQGTLVTVSS
# VL: DIVMTQSPDSLAVSLGERATINCKASKKVTIFGSTSALHWYQQKPGQPPKLIYNGAKPESGVPDRFSGSGSGTDFTLTISSLQAEDVAVYYCLQNKEVPYTFGGGTKVEIKR
# notes: Full length chains
# B7: A8M4 (antibody, V domains shown)
# VH: QVQLVQSGAEVKKPGSSVKVSCKASGYTFTSYGITWVRQAPGQGLEWMGEDYPRSGNTYYNEKFKGRVTITADKSTSTAYMELSSLRSEDTAVYYCARAEFISTVVAPYYYALDYWGQGTLVTVSS
# VL: DIVMTQSPDSLAVSLGERATINCKASKKVTIFGSTSALHWYQQKPGQPPKLIYNGAKPESGVPDRFSGSGSGTDFTLTISSLQAEDVAVYYCLQNKEVPYTFGGGTKVEIK
# B8: A6M4 (antibody, human IgG1, kappa, V domains shown)
# VH: QVQLVQSGAEVKKPGSSVKVSCKASGYTFTSYGITWVRQAPGQGLEWMGENYPRSGNTYYNEKFKGRVTITADKSTSTAYMELSSLRSEDTAVYYCARVEFISTVVAPYYYALDYWGQGTLVTVSS
# VL: DIVMTQSPDSLAVSLGERATINCKASKKVTIFGSTSALHWYQQKPGQPPKLIYNGAKPESGVPDRFSGSGSGTDFTLTISSLQAEDVAVYYCLQNKEVPYTFGGGTKVEIKR
# notes: Full length chains
# B9: A10M4 (antibody, human IgG1, kappa, V domains shown)
# VH: QVQLVQSGAEVKKPGSSVKVSCKASGYTFASYGITWVRQAPGQGLEWMGENYPRSGNTYYNEKFKGRVTITADKSTSTAYMELSSLRSEDTAMYYCARSEFISTVVAPYYYALDYWGQGTLVTVSS
# VL: DIVMTQSPDSLAVSLGERATINCKASKKVTIFGSTSALHWYQQKPGQPPKLIYNGAKPESGVPDRFSGSGSGTDFTLTISSLQAEDVAVYYCLQNKEVPYTFGGGTKVEIKR
# notes: Full length chains
# B10: A9M4 (antibody, V domains shown)
# VH: QVQLVQSGAEVKKPGSSVKVSCKASGYTFTSYGITWVRQAPGQGLEWMGEDYPRSGNTYYNEKFKGRVTITADKSTSTAYMELSSLRSEDTAVYYCARVEFISTVVAPYYYALDYWGQGTLVTVSS
# VL: DIVMTQSPDSLAVSLGERATINCKASKKVTIFGSTSALHWYQQKPGQPPKLIYNGAKPESGVPDRFSGSGSGTDFTLTISSLQAEDVAVYYCLQNKEVPYTFGGGTKVEIK
# B11: A3M5 (antibody, human IgG1, kappa, V domains shown)
# VH: QVQLVQSGAEVKKPGSSVKVSCKASGYTFTSYGITWVRQAPGQGLEWMGENYPRSGNTYYNEKFKGRVTITADKSTSTAYMELSSLRSEDTAVYYCARSEFISTVVAPYYYALDYWGQGTLVTVSS
# VL: DIVMTQSPDSLAVSLGERATINCKASKKVTIFGSISALHWYQQKPGQPPKLIYDGAKLESGVPDRFSGSGSGTDFTLTISSLQAEDVAVYYCLQNKEVPYTFGGGTKVEIKR
# notes: Full length chains
# B12: A3M6 (antibody, human IgG1, kappa, V domains shown)
# VH: QVQLVQSGAEVKKPGSSVKVSCKASGYTFTSYGITWVRQAPGQGLEWMGENYPRSGNTYYNEKFKGRVTITADKSTSTAYMELSSLRSEDTAVYYCARSEFISTVVAPYYYALDYWGQGTLVTVSS
# VL: DIVMTQSPDSLAVSLGERATINCKASKKVTIFGSISALHWYQQKPGQPPKLIYQGAKLESGVPDRFSGSGSGTDFTLTISSLQAEDVAVYYCLQNKEVPYTFGGGTKVEIKR
# notes: Full length chains
# B13: A10.5M4 (antibody, V domains shown)
# VH: QVQLVQSGAEVKKPGSSVKVSCKASGYTFASYGITWVRQAPGQGLEWMGENYPRSGNTYYNEKFKGRVTITADKSTSTAYMELSSLRSEDTAVYYCARSEFISTVVAPYYYALDYWGQGTLVTVSS
# VL: DIVMTQSPDSLAVSLGERATINCKASKKVTIFGSTSALHWYQQKPGQPPKLIYNGAKPESGVPDRFSGSGSGTDFTLTISSLQAEDVAVYYCLQNKEVPYTFGGGTKVEIK
# B14: A10.5M3 (antibody, V domains shown)
# VH: QVQLVQSGAEVKKPGSSVKVSCKASGYTFASYGITWVRQAPGQGLEWMGENYPRSGNTYYNEKFKGRVTITADKSTSTAYMELSSLRSEDTAVYYCARSEFISTVVAPYYYALDYWGQGTLVTVSS
# VL: DIVMTQSPDSLAVSLGERATINCKASKKVTIFGSTSALHWYQQKPGQPPKLIYNGAKLESGVPDRFSGSGSGTDFTLTISSLQAEDVAVYYCLQNKEVPYTFGGGTKVEIK
# Molecular target: T1, recombinant human IL-23
# Test: SPR (Biacore T100), tissue culture supernatant antibody captured on anti-human IgG, IL-23 analyte
# Description: Biacore analysis was carried out using a capture surface on a CM5 chip. Anti-human IgG (BR-1008-39) was used as the capturing agent. Anti-human IgG was coupled to a CM5 biosensor chip by primary amine coupling. Humanized antibody was captured on this immobilised surface and defined concentrations of IL-23 were passed over this captured surface. An injection of buffer over the captured antibody surface was used for double-referencing. […] T100 Biacore machine was used to generate the data; all runs were carried out at 25° C. using HBS EP. Data was analysed using the software inherent to the machine and fitted to the 1:1 model of binding. Tables 7 and 8 detail the IL-23 binding analysis carried out on the 8C92H6.HC1LC1 chimera and selected humanized variants in two separate experiments. […] The data shown for the humanized variants is representative of a number of runs. The chimeric mAb (8C9H6.HC1LC1) was only run once in each experiment, so data shown for this mAb is from that one run.
Kd [nM],koff [s⁻¹],kon [M⁻¹ s⁻¹],Binder
0.0775,0.000106,1.36e+06,B1
0.0637,0.000172,2.7e+06,B2
0.106,0.000117,1.11e+06,B3
0.053,0.000101,1.91e+06,B4
0.0606,9.38e-05,1.55e+06,B5
0.0918,0.000123,1.34e+06,B6
0.0462,9.58e-05,2.08e+06,B7
0.0465,0.000149,3.22e+06,B8
0.0733,0.000107,1.46e+06,B9
0.0456,0.000129,2.83e+06,B10
26.4,0.0012,45500,B11
1.23,0.0011,896000,B12
0.0416,8.64e-05,2.08e+06,B13
0.0962,0.000115,1.19e+06,B14
